Assay results from the Immune Epitope Database (IEDB).

Legend:
HLA-A*02:02 = experiment: IEDB peptide-MHC binding, purified MHC/competitive/radioactivity; filed as Kd, often an IC50 or EC50 that approximates it; ≥ and ≤ were set here for values at or beyond the usual limits of such assays
HLA-A*02:03 = experiment: as above
HLA-A*02:06 = experiment: as above
HLA-B*40:01 = experiment: IEDB peptide-MHC binding, purified MHC/direct/fluorescence; filed as Kd, often an IC50 or EC50 that approximates it; ≥ and ≤ were set here for values at or beyond the usual limits of such assays
HLA-B*15:01 = experiment: as above
HLA-A*02:01 [1] = experiment: as above
HLA-A*69:01 = experiment: as above
HLA-A*02:01 [2] = experiment: IEDB peptide-MHC binding, purified MHC/competitive/fluorescence; ≥ and ≤ were set here for values at or beyond the usual limits of such assays
HLA-A*03:01 = experiment: IEDB peptide-MHC binding, purified MHC/direct/fluorescence; filed as Kd, often an IC50 or EC50 that approximates it; ≥ and ≤ were set here for values at or beyond the usual limits of such assays
HLA-A*31:01 = experiment: as above
HLA-B*07:02 = experiment: as above; settings: source organism: Escherichia coli O157:H7
HLA-B*27:05 = experiment: as above; settings: source organism: Escherichia coli O157:H7
HLA-B*58:01 = experiment: as above
HLA-A*11:01 = experiment: as above
HLA-A*01:01 = experiment: as above; settings: source organism: Yersinia enterocolitica
[3] = source organism: Vaccinia virus WR
[4] = source organism: Mycobacterium tuberculosis variant bovis
[5] = source organism: Zaire ebolavirus
[6] = source organism: Burkholderia pseudomallei
[7] = source organism: Mammarenavirus guanaritoense
[8] = source organism: Escherichia coli O157:H7
[9] = source organism: SARS coronavirus Tor2
[10] = source organism: Mycobacterium tuberculosis
[11] = source organism: Mammarenavirus whitewaterense
[12] = source organism: Francisella tularensis subsp. holarctica LVS
[13] = source organism: Haemophilus influenzae
[14] = source organism: Yersinia enterocolitica
[15] = source organism: Salmonella enterica subsp. enterica serovar Typhimurium

Sequence | Kd (HLA-A*02:02; [3]) [nM] | Kd (HLA-A*02:03; [3]) [nM] | Kd (HLA-A*02:06; [3]) [nM] | also measured
AAAKTPVIV | 1900 | 1420 | ≥ 66800 | 
AELRHLNPL |  |  |  | Kd (HLA-B*40:01; source organism: Mycobacterium tuberculosis variant bovis BCG str. Pasteur 1173P2): 44.2 nM
AISAQVAAY |  |  |  | Kd (HLA-B*15:01; source organism: Mycobacterium tuberculosis F11): 1270 nM
ALASFLFGF |  |  |  | Kd (HLA-B*15:01; source organism: Pseudomonas aeruginosa): 745 nM
ALEQYGIENT | 3150 | 2160 | 1270 | 
ALPGPDGVV |  |  |  | Kd (HLA-A*02:01 [1]; [4]): 553 nM; Kd (HLA-A*69:01; [4]): ≥ 20000 nM
ALSSLAKHG |  |  |  | IC50 (HLA-A*02:01 [2]; [5]): ≥ 91800 nM
ALVCGLRQL |  |  |  | IC50 (HLA-A*02:01 [2]; source organism: Sudan ebolavirus): 22800 nM
AQAIGRVER |  |  |  | Kd (HLA-A*03:01; [6]): ≥ 20000 nM; Kd (HLA-A*31:01; [6]): 37.3 nM
CIVAAVIIMA | 1130 | 619 | 733 | 
CMKSFFGWK |  |  |  | Kd (HLA-A*03:01; source organism: Influenza A virus (A/duck/Fujian/17/2001(H5N1))): 848 nM
CNYTRFWYI |  |  |  | Kd (HLA-A*02:02; [7]): 10100 nM; Kd (HLA-A*02:03; [7]): 5310 nM; Kd (HLA-A*02:06; [7]): 257 nM
CVRNLEELTT | 12600 | 15200 | ≥ 42800 | 
DISVNASKTI | ≥ 46800 | 11900 | ≥ 69800 | 
DIVSDSKKIM | ≥ 25100 | ≥ 57200 | ≥ 69800 | 
DTGKKELALT | 1040 | 262 | 6800 | 
DTLVKSGLT | 1950 | 2880 | ≥ 52700 | 
DVKVLAARL | 6230 | 10700 | 9990 | 
EAFETQSGA | ≥ 77800 | ≥ 78100 | ≥ 49700 | 
EEITPHCAL |  |  |  | Kd (HLA-B*40:01; source organism: Mammarenavirus lassaense): 26.6 nM
EIITGNKVKT | ≥ 70000 | ≥ 70400 | ≥ 69800 | 
ETWVETWAF |  |  |  | Kd (HLA-A*02:01 [1]; [8]): ≥ 20000 nM; Kd (HLA-A*03:01; [8]): ≥ 20000 nM; Kd (HLA-B*07:02): ≥ 20000 nM; Kd (HLA-B*15:01; [8]): 1170 nM; Kd (HLA-B*27:05): ≥ 20000 nM; Kd (HLA-B*58:01; [8]): 3000 nM
EVRYIDITNI | 12900 | 5810 | 4340 | 

Sequence | Kd (HLA-A*02:02; [3]) [nM] | Kd (HLA-A*02:03; [3]) [nM] | Kd (HLA-A*02:06; [3]) [nM] | also measured
FLPSDFFPSV |  |  |  | Kd (HLA-A*02:02; source organism: Hepatitis B virus): 2 nM
FLWLLWPVTL |  |  |  | Kd (HLA-A*02:02; [9]): 2.67 nM; Kd (HLA-A*02:03; [9]): 14 nM; Kd (HLA-A*02:06; [9]): 28.4 nM
FVKENERVNV | 186 | 11.8 | 683 | 
FVMCLEAKT | 609 | 1940 | 979 | 
GLFLTTEAV |  |  |  | IC50 (HLA-A*02:01 [2]; [10]): 50 nM
GLFPFHFTL |  |  |  | Kd (HLA-A*02:01 [1]; [10]): 0.4 nM
GLLQFIVFL |  |  |  | Kd (HLA-A*02:02; [11]): 0.6 nM; Kd (HLA-A*02:03; [11]): 7710 nM; Kd (HLA-A*02:06; [11]): 12.4 nM
GLYIPGTSVI | 92.1 | 0.189 | 3620 | 
GMHMVAGHD |  |  |  | IC50 (HLA-A*02:01 [2]; [5]): 67800 nM
GTGILFMEM | 2200 | 7730 | 9980 | 
GVCYYLLMHL | 95.8 | 63.8 | 128 | 
GVLHTKFWI | 16600 | 12300 | 417 | 
GVYTGSIGY |  |  |  | Kd (HLA-A*03:01; [12]): 2.6 nM; Kd (HLA-A*11:01; [12]): 1.6 nM
IAVITETIPI | 515 | 31.9 | 1.04 | 
IIPFIAYFVL | 715 | 4730 | 852 | 
ILFLTLIVFT |  |  |  | Kd (HLA-A*02:02; [9]): 23.6 nM; Kd (HLA-A*02:03; [9]): 1070 nM; Kd (HLA-A*02:06; [9]): 703 nM
ILWGYGFLQ |  |  |  | Kd (HLA-A*02:01 [1]; [13]): 218 nM; Kd (HLA-A*69:01; [13]): 12900 nM; Kd (HLA-B*58:01; [13]): 4790 nM
IMDASSFTL |  |  |  | Kd (HLA-A*01:01): 5700 nM; Kd (HLA-A*02:01 [1]; [14]): 30.8 nM; Kd (HLA-A*69:01; [14]): 997 nM; Kd (HLA-B*15:01; [14]): 138 nM; Kd (HLA-B*40:01; [14]): 432 nM; Kd (HLA-B*58:01; [14]): 49.5 nM
IQQLPETYF |  |  |  | Kd (HLA-A*02:01 [1]; source organism: SARS-CoV1): 16800 nM; Kd (HLA-A*11:01; source organism: SARS-CoV1): ≥ 51000 nM; Kd (HLA-B*15:01; source organism: SARS-CoV1): 188 nM; Kd (HLA-B*58:01; source organism: SARS-CoV1): ≥ 23400 nM
ITETIPIGM | 12400 | ≥ 42800 | 7690 | 
KINEMVDELV | 587 | 492 | 3050 | 
KLWAQCVQL |  |  |  | Kd (HLA-A*02:01 [1]; source organism: SARS-CoV1): 109 nM; Kd (HLA-A*03:01; source organism: SARS-CoV1): 2860 nM; Kd (HLA-A*31:01; source organism: SARS-CoV1): 304 nM; Kd (HLA-A*02:02; [9]): 12.7 nM; Kd (HLA-A*02:03; [9]): 194 nM; Kd (HLA-A*02:06; [9]): 9.47 nM
KQPNRPLFI |  |  |  | Kd (HLA-A*02:01 [1]; [15]): 6000 nM; Kd (HLA-A*69:01; [15]): ≥ 20000 nM
